According to paper PMC5434815, “The role of histidines in amyloid β fibril assembly” (Febs Letters, 2017):
“And” between values parts separate entries of the source, which are not always exact repeats. Equal entries are not always repeated. Where two headings read alike, the source gives them in different places. Values belong to the substance of their own block, whether it stands above or below them.

What was measured:
Amyloid β 1–40 H14A [1] = assay: SPR; preformed fibrils immobilised on a CM5 chip by amine coupling (3500 RU), probed with monomers of the same variant; monomer onto fibril end; 25 °C, 20 μL/min, 20 mM acetate pH 5.5, 150 mM NaCl; slow phase of dissociation only; KD = RD/RA x KD of Aβ1-40 wt (1 nM, from earlier work)
Amyloid β 1–40 H14A [2] = assay: SPR; preformed fibrils immobilised on a CM5 chip by amine coupling (3500 RU), probed with monomers of the same variant; monomer onto fibril end; 25 °C, 20 μL/min, 20 mM phosphate pH 7.4, 150 mM NaCl; slow phase of dissociation only; KD = RD/RA x KD of Aβ1-40 wt (100 nM, from earlier work)
Amyloid β 1–40 H6A [3] = assay: SPR; preformed fibrils immobilised on a CM5 chip by amine coupling (3500 RU), probed with monomers of the same variant; monomer onto fibril end; 25 °C, 20 μL/min, 20 mM acetate pH 5.5, 150 mM NaCl; slow phase of dissociation only; KD = RD/RA x KD of Aβ1-40 wt (1 nM, from earlier work)
Amyloid β 1–40 H6A [4] = assay: SPR; preformed fibrils immobilised on a CM5 chip by amine coupling (3500 RU), probed with monomers of the same variant; monomer onto fibril end; 25 °C, 20 μL/min, 20 mM phosphate pH 7.4, 150 mM NaCl; slow phase of dissociation only; KD = RD/RA x KD of Aβ1-40 wt (100 nM, from earlier work)
[5] = test system: corresponding immobilised fibrils (fibrillar form of Aβ); assay: SPR dissociation rate k(off) of Aβ fibrils, slow phase, relative to Aβ1–40 wt; type: binding; settings: for RD, relative dissociation (k(off) versus Aβ1–40 wt): 150 mM NaCl, 25 °C, after 2 μM monomer injection, slow phase, points before 100 s excluded, one exponential decay, Aβ1–40 wt = 1
Protocol: (§1) Recombinant variants of Aβ1–40, Aβ1–40 H6A, Aβ1–40 H13A, Aβ1–40 H14A and Aβ1–40 H6A, H13A, H14A were obtained from AlexoTech (Umeå, Sweden). All lyophilised peptides were solubilised in 20 mM NaOH and separated by size‐exclusion chromatography (Superdex 10/300, GE Life Science, Uppsala, Sweden) in PBS with 2 mM EDTA, 5 mM NaOH and 150 mM NaCl. The pH of all purified peptide solutions was adjusted using a stock solution of phosphate or acetate buffer to give a final buffer concentration corresponding to 20 mM phosphate (pH 7.4) or acetate (pH 5.5) and 150 mM NaCl.
(§2) The interaction study between the fibrillar form of Aβ and its monomeric form was performed using a BIAcore® 3000 biosensor (GE Healthcare®, Uppsala, Sweden) equipped with a CM5 sensor chip (GE Healthcare®). First, the fibrillar form of Aβ was immobilised at a density of 3500 response units (RUs) on the dextran layer of the chip using standard amino coupling reagents at pH 4.0. All SPR experiments were performed at 25 °C at a flow rate of 20 μL·min^−1 in either a 20 mM phosphate buffer (pH 7.4) or 20 mM acetate buffer (pH 5.5). All experiments were performed in the presence of 150 mM NaCl, which represents a physiological ion‐strength.
(§3) All sensograms were corrected for nonspecific interactions using a reference surface according to standard procedures 16.
Note that the dissociation phase exposes a biphasic curvature. This is highly representative and frequently observed when performing these kinds of experiments. […] All analyses of decay rates within this work are therefore exclusively focused on the slower second phase of dissociation.
In contrast to the association rate, kon, the rate of dissociation, koff, is independent of the concentration of monomers. Subsequent to probing, the immobilised fibrils with free monomers, the rate of dissociation can be seen as a decrease in the signal over time.
Because the latter part of the curve, representing the slower phase of dissociation (indicated by arrow 3 Fig. 1), strongly dominates the interaction strength, we have exclusively focused on this part, and no points before 100 s were included in the curve. The dissociation curve could then be fitted to a one exponential decay.

[6] = test system: immobilised Aβ fibrils / fibrillar end; assay: Fibril stability (KD, RD/RA, potentiation factor) from SPR association and dissociation; type: binding; settings: 25 °C, relative to Aβ1–40 wt
Protocol: as §2, §3
While a simple interaction between, for example, a receptor and ligand can easily be determined through saturation experiments, this cannot be done with polymers since they, per definition, cannot be saturated.
This problem can, however, be circumvented by defining the concentration of free monomers where the fibrils are at steady state, i.e. the concentration of free monomers where neither association nor dissociation can be detected. We have previously shown that the KD for Aβ1–40 wt at neutral pH is around 100 nM and around 1 nM at pH 5.5 11, 13. The KD at neutral pH has also been investigated by Hasegawa and co‐workers 14 with similar results. All figures used here are therefore given as relative values to the KD for Aβ1–40 wt corresponding to 100 nM at neutral pH and 1 nM at pH 5.5.
Multiplying the relative RD/RA with the KD for Aβ 1–40 wt will then give the KD for the histidine derivatives.

[7] = test system: corresponding immobilised fibrils (fibrillar form of Aβ); assay: SPR association rate k(on) of Aβ monomers onto immobilised fibrils, relative to Aβ1–40 wt; type: binding; settings: for RA, relative association (k(on) versus Aβ1–40 wt): 150 mM NaCl, 25 °C, 20 μL·min^−1, CM5 chip, fibrils at 3500 RU, end state after 60 s injection, Aβ1–40 wt = 1
Protocol: as §1, §2
Due to the polymeric nature of amyloid fibrils, the covalent immobilisation on the sensor chip, likely only occurs in minor fraction of the accessible amino groups. This treatment is therefore not anticipated to influence the overall incorporation of monomers in a significant manner. However, the influence from using immobilised fibrils or the dextran layer cannot be fully excluded and should therefore be disclosed.
as §3
Probing free monomeric Aβ against immobilised fibrils using SPR is a frequently used technique for measuring the intrinsic kinetic properties of Aβ polymerisation 11, 14, 17, 18, 19.
Fibrils from recombinant variants of Aβ1–40, Aβ1–40 H6A, Aβ1–40 H13A, Aβ1–40 H14A and Aβ1–40 H6A, H13A, H14A were prepared by prolonged incubation in either PBS (pH 7.4) or acetate buffer pH 5.5 containing 150 mM NaCl. Fibrils immobilised on a CM5 chip were then probed with their monomeric counterpart at different concentrations of Aβ monomers and analysed by SPR. Samples were injected for exactly 60 s and the maximal value at the end state of each injection (indicated by arrow 1 in Fig. 1A) was plotted as a function of the monomeric concentration, Fig. 2. This generates an association rate at each point of measurement. A guideline is given in the figures to illustrate the linearity.
By comparing the rate between the different Aβ variants, it is possible to determine relative differences in k(on).

[8] = target: immobilised Aβ fibrils / fibrillar end; settings: cited from earlier work
Excerpt: Table 1 Relative change of association and dissociation rates of Aβ1–40 wt and the His‐Ala Aβ variants, and the potentiation of Aβ fibril formation as a function of lowering the pH. RA, Relative association; RD, Relative dissociation; PnF, Potentiation factor KD(pH7.4)/KD(pH5.5) | column: pH 7.4 / KD (nM); pH 5.5 / KD (nM) || The formation of Aβ fibrils requires an initial nucleation event, and fibril elongation involves the addition of monomers to an existing fibril. […] The KD for Aβ1–40 can be as much as 120 times lower at pH 4.5 than pH 7.4. […] It is therefore of interest to elucidate the stabilising factors associated with fibril stability and the potentiating ... || (+ 3 further places)

Amyloid β 1–40 H13A [9] = assay: SPR; preformed fibrils immobilised on a CM5 chip by amine coupling (3500 RU), probed with monomers of the same variant; monomer onto fibril end; 25 °C, 20 μL/min, 20 mM acetate pH 5.5, 150 mM NaCl; slow phase of dissociation only; KD = RD/RA x KD of Aβ1-40 wt (1 nM, from earlier work)
Amyloid β 1–40 H13A [10] = assay: SPR; preformed fibrils immobilised on a CM5 chip by amine coupling (3500 RU), probed with monomers of the same variant; monomer onto fibril end; 25 °C, 20 μL/min, 20 mM phosphate pH 7.4, 150 mM NaCl; slow phase of dissociation only; KD = RD/RA x KD of Aβ1-40 wt (100 nM, from earlier work)

Kd (Amyloid β 1–40 H14A [1]): 2.19 nM | RA (association rate relative to Aβ1-40 wt) (Amyloid β 1–40 H14A [1]): 1.01 | RD (dissociation rate relative to Aβ1-40 wt) (Amyloid β 1–40 H14A [1]): 2.22 | Kd (Amyloid β 1–40 H14A [2]): 794 nM | RA (association rate relative to Aβ1-40 wt) (Amyloid β 1–40 H14A [2]): 0.34 | RD (dissociation rate relative to Aβ1-40 wt) (Amyloid β 1–40 H14A [2]): 2.7
Substance: Amyloid β 1–40 H14A (peptide)

Kd (Amyloid β 1–40 H6A [3]): 1.43 nM | RA (association rate relative to Aβ1-40 wt) (Amyloid β 1–40 H6A [3]): 1.94 | RD (dissociation rate relative to Aβ1-40 wt) (Amyloid β 1–40 H6A [3]): 2.78 | Kd (Amyloid β 1–40 H6A [4]): 427 nM | RA (association rate relative to Aβ1-40 wt) (Amyloid β 1–40 H6A [4]): 0.45 | RD (dissociation rate relative to Aβ1-40 wt) (Amyloid β 1–40 H6A [4]): 1.92
Substance: Amyloid β 1–40 H6A (peptide)

RD/RA ([6]; pH 5.5, 150 mM NaCl): 1 | RD/RA ([6]; pH 7.4, 150 mM NaCl): 1
Substance: Aβ1–40 wt: wild‐type amyloid β 1–40, recombinant, obtained from AlexoTech (Umeå, Sweden) [reference compound]
RD, relative dissociation (k(off) versus Aβ1–40 wt) ([5]; pH 5.5, 20 mM acetate): 1 | RD, relative dissociation (k(off) versus Aβ1–40 wt) ([5]; pH 7.4, 20 mM phosphate): 1 | stabilisation / dissociation on lowering the pH, in words ([5]; pH 7.4 to 5.5): significantly stabilised by the decrease in pH | RA, relative association (k(on) versus Aβ1–40 wt) ([7]; pH 5.5, 20 mM acetate): 1 | rate of association, in words ([7]; pH 5.5 versus pH 7.4): much faster rate of association | RA, relative association (k(on) versus Aβ1–40 wt) ([7]; pH 7.4, 20 mM phosphate): 1 | Kd ([8]; neutral pH (pH 7.4), reference value for the relative KDs, read-out: KD (critical concentration)): ~100 nM and 100 nM | Kd ([8]; neutral pH, read-out: critical concentration (KD)): ~100 nM | decrease of KD at pH 4.5 versus pH 7.4 (times lower) ([8]; pH 4.5 vs pH 7.4, "as much as"): ≤ 120 times | Kd ([8]; pH 5.5, reference value for the relative KDs, read-out: KD): ~1 nM and 1 nM

RD/RA ([6]; pH 5.5, 150 mM NaCl): 2.11 | RD/RA ([6]; pH 7.4, 150 mM NaCl): 7.16
Substance: Aβ1–40 H13A
RD, relative dissociation (k(off) versus Aβ1–40 wt) ([5]; pH 5.5, 20 mM acetate): 2.13 | RD, relative dissociation (k(off) versus Aβ1–40 wt) ([5]; pH 7.4, 20 mM phosphate): 2.22 | RA, relative association (k(on) versus Aβ1–40 wt) ([7]; pH 5.5, 20 mM acetate): 1.01 | RA, relative association (k(on) versus Aβ1–40 wt) ([7]; pH 7.4, 20 mM phosphate): 0.31

Kd (Amyloid β 1–40 H13A [9]): 2.11 nM | RA (association rate relative to Aβ1-40 wt) (Amyloid β 1–40 H13A [9]): 1.01 | RD (dissociation rate relative to Aβ1-40 wt) (Amyloid β 1–40 H13A [9]): 2.13 | Kd (Amyloid β 1–40 H13A [10]): 716 nM | RA (association rate relative to Aβ1-40 wt) (Amyloid β 1–40 H13A [10]): 0.31 | RD (dissociation rate relative to Aβ1-40 wt) (Amyloid β 1–40 H13A [10]): 2.22
Substance: Amyloid β 1–40 H13A (peptide)
